In the supplement of paper PMC10724198:
± gives the standard deviation of the averaged measurements.

Test system: Saccharomyces cerevisiae
Assay: protein stability index of tFT-peptide fusion (C-terminal peptide) (PSI (0-1 scale)); higher = more stable (slower turnover)
Conditions: genetic background: wild type; temperature: 30 C
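Further: PSI is a weighted mean of sequencing reads over stability bins, variants kept only with over 10 reads, mCherry proximal and sfGFP distal, peptide attached via GGGS linker.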

STELQKMPQIEY
protein stability index: 0.722 ± 0.11

STKQTTTTERAI
protein stability index: 0.67 ± 0.013

STPDRFVSRGRQ
protein stability index: 0.702 ± 0.043

STPPGTPGISRQ
protein stability index: 0.723 ± 0.079

STPPLSLRPLLR
protein stability index: 0.608 ± 0.055

STPSPLTLPPLP
protein stability index: 0.695 ± 0.024

STPSPSPTGLSR
protein stability index: 0.597 ± 0.065

STPVKLPTSSLP
protein stability index: 0.663 ± 0.051

STQELHYCFVCL
protein stability index: 0.59 ± 0.022

STRPPVRYHGAS
protein stability index: 0.728 ± 0.066

STRRTSKCHQGI
protein stability index: 0.711 ± 0.019

STSAPPRVPTPR
protein stability index: 0.704 ± 0.078

STSSNGVGLPRL
protein stability index: 0.901 ± 0.11

STVHLPAPAWGS
protein stability index: 0.707 ± 0.033

SVAGGGSACRGC
protein stability index: 0.646 ± 0.039

SVAWPRLLSISP
protein stability index: 0.612 ± 0.0089

SVCFPPCSSLPP
protein stability index: 0.71 ± 0.19

SVFGCLPFDLMV
protein stability index: 0.735 ± 0.0088

SVFSPSTALLYP
protein stability index: 0.697 ± 0.02

SVGGLAALLCGL
protein stability index: 0.682 ± 0.037

SVGGSLGAGGGG
protein stability index: 0.682 ± 0.064

SVGKRRGVGVWN
protein stability index: 0.7007 ± 0.0031

SVGLPPPPPFPP
protein stability index: 0.629 ± 0.017

SVGLQLAFSAAV
protein stability index: 0.728 ± 0.061

SVLALKGFCWLG
protein stability index: 0.562 ± 0.042

SVPPCSLPPLPP
protein stability index: 0.6407 ± 0.0048

SVPPTCLHDAHF
protein stability index: 0.713 ± 0.053

SVPSAWCWVSSS
protein stability index: 0.6 ± 0.038

SVPTPSSNPRVK
protein stability index: 0.698 ± 0.05

SVQIKKIRRKNN
protein stability index: 0.6227 ± 0.0037

SVRDRCKENERF
protein stability index: 0.658 ± 0.043

SVRGMFPSAGVS
protein stability index: 0.6934 ± 0.00093

SVSDPLPPRQTV
protein stability index: 0.721 ± 0.057

SVSEIGYEIRSL
protein stability index: 0.739 ± 0.068

SVSLSLLFFLPF
protein stability index: 0.675 ± 0.025

SVTLVPPPLPFP
protein stability index: 0.677 ± 0.054

SVVGNYHQTEPV
protein stability index: 0.702 ± 0.059

SVYTTGHTHTGR
protein stability index: 0.626 ± 0.17

SWALELARPGEG
protein stability index: 0.718 ± 0.013

SWFLLEVLSDFK
protein stability index: 0.649 ± 0.014

SWFVGFDGAVGG
protein stability index: 0.774 ± 0.088

SWGGELGATSGG
protein stability index: 0.708 ± 0.024

SWGGLGSFCRVI
protein stability index: 0.684 ± 0.014

SWGRYSYIEVMR
protein stability index: 0.7022 ± 0.0057

SWKFAFWCFLGR
protein stability index: 0.5675 ± 0.0056

SWPIWGSCGWRR
protein stability index: 0.739 ± 0.11

SWSLIFFGYFPF
protein stability index: 0.591 ± 0.029

SYFVSGADSLIL
protein stability index: 0.635 ± 0.017

SYGDPSTTRLSP
protein stability index: 0.701 ± 0.063

SYGPSGEFSFSF
protein stability index: 0.702 ± 0.0075

SYHRAAPFQSCD
protein stability index: 0.8 ± 0.12

SYPLSRPCSPCD
protein stability index: 0.677 ± 0.068

SYRGIGVGLCAG
protein stability index: 0.622 ± 0.016

SYTLSGYGSRDN
protein stability index: 0.698 ± 0.018

TAAEECIGRAIG
protein stability index: 0.671 ± 0.04

TAAHRASGEIAC
protein stability index: 0.684 ± 0.062

TAGVQSGCTRII
protein stability index: 0.618 ± 0.052

TAHHTRPQYLPL
protein stability index: 0.622 ± 0.022

TAKVYEKEGGEE
protein stability index: 0.671 ± 0.019

TAPPSISYVQAF
protein stability index: 0.639 ± 0.021

TARGAAARSSQL
protein stability index: 0.747 ± 0.071

TASRSSRADERA
protein stability index: 0.591 ± 0.033

TCFYYVGGEKCM
protein stability index: 0.665 ± 0.0077

TCLGYKLHPARG
protein stability index: 0.718 ± 0.031

TCVASLSVLCLL
protein stability index: 0.574 ± 0.048

TDHTNCARDLGA
protein stability index: 0.664 ± 0.054

TDSRPKVGKRGN
protein stability index: 0.6583 ± 0.0025

TDWLMQRILRPF
protein stability index: 0.718 ± 0.028

TEGGKIEGGGRK
protein stability index: 0.682 ± 0.087

TEINEAQNIPEK
protein stability index: 0.6688 ± 0.0027

TEKRMIINIKIK
protein stability index: 0.735 ± 0.03

TERPPRRPKSQG
protein stability index: 0.715 ± 0.038

TFLGEAGSVGVT
protein stability index: 0.646 ± 0.03

TFSFSRPPLPPA
protein stability index: 0.6853 ± 0.0066

TFSPRLRPPPPP
protein stability index: 0.7078 ± 0.0041

TFTESRLRMRLG
protein stability index: 0.623 ± 0.086

TFVSPPPHPLRP
protein stability index: 0.636 ± 0.055

TGIGCRFIWCSK
protein stability index: 0.65 ± 0.037

TGLRLFGVLSLI
protein stability index: 0.607 ± 0.016

TGPGCWVCCVGE
protein stability index: 0.648 ± 0.048

TGSGQVSREERS
protein stability index: 0.671 ± 0.036

TGVRSAEAKRKQ
protein stability index: 0.579 ± 0.05

THPRPTLTRCST
protein stability index: 0.734 ± 0.081

THPTCPLHLLPT
protein stability index: 0.699 ± 0.039

THSQPPQYSRVP
protein stability index: 0.638 ± 0.071

THTPPPHRPSNR
protein stability index: 0.682 ± 0.22

TICRKPTLMSPQ
protein stability index: 0.775 ± 0.061

TICVILNGVGYS
protein stability index: 0.625 ± 0.11

TIGPSYLLPDSF
protein stability index: 0.784 ± 0.018

TINSHNYKTKTP
protein stability index: 0.664 ± 0.021

TIPPSTRAITPV
protein stability index: 0.652 ± 0.046

TIRKNKTDVISK
protein stability index: 0.667 ± 0.017

TISHYSLAPTQI
protein stability index: 0.695 ± 0.02

TITRIAFRFCYS
protein stability index: 0.556 ± 0.032

TIVFLLPSPRSY
protein stability index: 0.657 ± 0.0094

TKKSKRKREQAE
protein stability index: 0.68 ± 0.026

TKRGQMLYQDKE
protein stability index: 0.741 ± 0.1

TKRIKEERTKKC
protein stability index: 0.65 ± 0.025

TKRQKQKKKNKE
protein stability index: 0.696 ± 0.071

TKTIKPNKKATV
protein stability index: 0.655 ± 0.03

TLFLFVSSFCMG
protein stability index: 0.47 ± 0.067
